# Residue numbers refer to the chain shown, from its start. Numbers in names are those of the source.
# T1: human FcγRIIb extracellular domain, C-terminal His-tag (human, UniProt P31994 43-217)
# T1 construct: also called FcgRIIb; not shown: His-tag added to the C-terminus
# T1 sequence: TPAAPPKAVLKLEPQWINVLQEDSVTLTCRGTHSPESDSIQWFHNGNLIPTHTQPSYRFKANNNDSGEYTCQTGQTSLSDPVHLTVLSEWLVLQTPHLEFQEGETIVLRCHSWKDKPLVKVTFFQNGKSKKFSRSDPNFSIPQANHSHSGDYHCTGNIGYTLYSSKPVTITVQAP
# T2: human FcγRIIaH extracellular domain, C-terminal His-tag (human, UniProt P12318 34-217)
# T2 construct: also called human FcγRIIa (type H); FcgRIIaH; not shown: His-tag added to the C-terminus
# T2 sequence: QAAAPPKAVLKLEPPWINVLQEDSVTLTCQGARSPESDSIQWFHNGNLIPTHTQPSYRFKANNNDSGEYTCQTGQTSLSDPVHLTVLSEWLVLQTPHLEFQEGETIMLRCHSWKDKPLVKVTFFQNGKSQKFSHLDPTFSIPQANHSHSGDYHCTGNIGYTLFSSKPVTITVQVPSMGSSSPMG
# T3: human FcγRIIaR extracellular domain, C-terminal His-tag (human, UniProt P12318 34-217)
# T3 construct: also called human FcγRIIa (type R); FcgRIIaR; not shown: His-tag added to the C-terminus
# T3 chain: T2 sequence with H134R
# B1: MS103240H795-TT11/M103202L1045-SK1 (antibody, human IgG1, kappa)
# heavy: QVQLVESGGGLVQPGGSLRLSCAVSGIDLSHDDISWVRQAPGKGLEWVSIISYAGSTYYASWAKGRLTISKDTSKNQVVLTMTNMDPVDTATYYCARGVPAYSHGGDLWGQGTLVTVSSASTKGPSVFPLAPSSKSTSGGTAALGCLVKDYFPEPVTVSWNSGALTSGVHTFPAVLQSSGLYSLSSVVTVPSSSLGTQTYICNVNHKPSNTKVDKKVEPKSCDKTHTCPPCPAPEYLGGDSVFLFPPKPKDVLMISRTPEVTCVVVDVSHEDPEVKFNWYVDGVEVHNAKTKPREEQYNSTYRVVSVLPVLHQDWLNGKEYKCKVSNKALPKPIEKTISKAKGQPREPQVYTLPPSREEMTKNQVSLTCLVKGFYPSDIAVEWESNGQPENNYKTTPPVLDSDGSFFLYSKLTVDKSRWQQGNVFSCSVMHEALHNHYTQKSLSLSP
# light: DIVMTQSPATLSLSPGERATLSCTTSQSVYHENWLSWFQQKPGQPPKLLIYWASTLAYGVPSRFSGSGSGTDFTLTISSLQPEDAATYYCAGGYGGGRYAFGQGTKVEIKRTVAAPSVFIFPPSDEQLKSGTASVVCLLNNFYPREAKVQWKVDNALQSGNSQESVTEQDSKDSTYSLSSTLTLSKADYEKHKVYACEVTHQGLSSPVTKSFNRGEC
# notes: CH = SG1 with L234Y/P238D/T250V/T307P/A330K (EU numbering)
# B2: MS103240H795-TT12/M103202L1045-SK1 (antibody, human IgG1, kappa)
# heavy: B1 heavy with S269A
# light: B1 light
# notes: CH = SG1 with L234Y/P238D/T250V/S267A/T307P/A330K (EU numbering)
# B3: MS103240H795-TT21/M103202L1045-SK1 (antibody, human IgG1, kappa)
# heavy: B1 heavy with Y236L, Q313R, D415K
# light: B1 light
# notes: CH = SG1 with P238D/T250V/T307P/Q311R/A330K/D413K (EU numbering)
# B4: MS103240H795-TT15/M103202L1045-SK1 (antibody, human IgG1, kappa)
# heavy: B1 heavy with V266I, S269A
# light: B1 light
# notes: CH = SG1 with L234Y/P238D/T250V/V264I/S267A/T307P/A330K (EU numbering)
# B5: MS103240H795-TT28/M103202L1045-SK1 (antibody, human IgG1, kappa)
# heavy: B1 heavy with S269A, Q313R, P345R
# light: B1 light
# notes: CH = SG1 with L234Y/P238D/T250V/S267A/T307P/Q311R/A330K/P343R (EU numbering)
# B6: MS103240H795-TT23/M103202L1045-SK1 (antibody, human IgG1, kappa)
# heavy: B1 heavy with Y236L, V266I, Q313R, D415K
# light: B1 light
# notes: CH = SG1 with P238D/T250V/V264I/T307P/Q311R/A330K/D413K (EU numbering)
# B7: MS103240H795-TT22/M103202L1045-SK1 (antibody, human IgG1, kappa)
# heavy: B1 heavy with Y236L, V266I, Q313R, P345R
# light: B1 light
# notes: CH = SG1 with P238D/T250V/V264I/T307P/Q311R/A330K/P343R (EU numbering)
# B8: MS103240H795-TT20/M103202L1045-SK1 (antibody, human IgG1, kappa)
# heavy: B1 heavy with Y236L, Q313R, P345R
# light: B1 light
# notes: CH = SG1 with P238D/T250V/T307P/Q311R/A330K/P343R (EU numbering)
# B9: MS103240H795-TT25/M103202L1045-SK1 (antibody, human IgG1, kappa)
# heavy: B1 heavy with Y236L, S269A, Q313R, D415K
# light: B1 light
# notes: CH = SG1 with P238D/T250V/S267A/T307P/Q311R/A330K/D413K (EU numbering)
# B10: MS103240H795-TT26/M103202L1045-SK1 (antibody, human IgG1, kappa)
# heavy: B1 heavy with Q313R, P345R
# light: B1 light
# notes: CH = SG1 with L234Y/P238D/T250V/T307P/Q311R/A330K/P343R (EU numbering)
# B11: MS103240H795-TT27/M103202L1045-SK1 (antibody, human IgG1, kappa)
# heavy: B1 heavy with Q313R, D415K
# light: B1 light
# notes: CH = SG1 with L234Y/P238D/T250V/T307P/Q311R/A330K/D413K (EU numbering)
# B12: MS103240H795-TT24/M103202L1045-SK1 (antibody, human IgG1, kappa)
# heavy: B1 heavy with Y236L, S269A, Q313R, P345R
# light: B1 light
# notes: CH = SG1 with P238D/T250V/S267A/T307P/Q311R/A330K/P343R (EU numbering)
# B13: MS103240H795-TT29/M103202L1045-SK1 (antibody, human IgG1, kappa)
# heavy: B1 heavy with S269A, Q313R, D415K
# light: B1 light
# notes: CH = SG1 with L234Y/P238D/T250V/S267A/T307P/Q311R/A330K/D413K (EU numbering)
# B14: MS103240H795-TT13/M103202L1045-SK1 (antibody, human IgG1, kappa)
# heavy: B1 heavy with Y236L, V266I, S269A
# light: B1 light
# notes: CH = SG1 with P238D/T250V/V264I/S267A/T307P/A330K (EU numbering)
# B15: MS103240H795-TT14/M103202L1045-SK1 (antibody, human IgG1, kappa)
# heavy: B1 heavy with V266I
# light: B1 light
# notes: CH = SG1 with L234Y/P238D/T250V/V264I/T307P/A330K (EU numbering)
# Target: T1, human FcγRIIb extracellular domain, …
# Test: SPR (BIACORE), antibody captured, soluble FcgR as analyte, 25C
# Experimental: (§1) The kinetic analysis of interactions between these antibodies and FcγR was carried out using BIACORE® T200 or BIACORE® 4000 (GE Healthcare). HBS-EP+ (GE Healthcare) was used as the running buffer, and the measurement temperature was set to 25° C. A chip produced by immobilizing Protein A. Protein A/G or mouse anti-human IgG kappa light chain (BD Biosciences) onto a Series S Sensor Chip CM4 or CM5 (GE Healthcare) by the amine-coupling method was used. […] After the measurement, the antibody captured on the chip was washed off by allowing reaction with 10 mM glycine-HCl, pH1.5 and 25 mM NaOH so that the chip was regenerated and used repeatedly. The sensorgrams obtained as measurement results were analyzed by the 1:1 Langmuir binding model using the BIACORE® Evaluation Software to calculate the binding rate constant ka (L/mol/s) and dissociation rate constant kd (l/s), and the dissociation constant KD (mol/L) was calculated from these values. […] Regarding such interactions, KD values were calculated using the following 1:1 binding model described in BIACORE® T100 Software Handbook BR1006-48 Edition AE.
# (§2) Human FcγRIIb-enhanced Fc variants with anti-myostatin variable region were constructed and their affinity for human FcγRs was evaluated. […] In addition, substitutions (Q311R/D413K or […]) were also introduced. The variants were expressed using M103202L1045-SK1 as light chain and their affinity to human FcγRs was analyzed according to the method shown in Example 34.
row,Kd,Binder
1,520 nM,B1
2,490 nM,B2
3,1300 nM,B3
4,250 nM,B4
5,850 nM,B5
6,550 nM,B6
7,590 nM,B7
8,1400 nM,B8
9,1000 nM,B9
10,1100 nM,B10
11,820 nM,B11
12,1200 nM,B12
13,810 nM,B13
14,320 nM,B14
15,190 nM,B15

# Target: T2, human FcγRIIaH extracellular domain, …
# Test: as above
# Experimental: as §1, §2
row,Kd,Binder
1,24 µM,B1
2,20 µM,B2
3,56 µM,B3
4,29 µM,B4
5,48 µM,B5
6,100 µM,B6
7,60 µM,B7
8,91 µM,B8
9,22 µM,B9
10,69 µM,B10
11,52 µM,B11
12,49 µM,B12
13,37 µM,B13
14,45 µM,B14
15,18 µM,B15

# Target: T3, human FcγRIIaR extracellular domain, …
# Test: as above
# Experimental: as §1, §2
row,Kd,Binder
1,10 µM,B1
2,5 µM,B2
3,20 µM,B3
4,6.1 µM,B4
5,7.7 µM,B5
6,48 µM,B6
7,21 µM,B7
8,28 µM,B8
9,13 µM,B9
10,21 µM,B10
11,14 µM,B11
12,13 µM,B12
13,7.5 µM,B13
14,9.8 µM,B14
15,7.6 µM,B15

# Target: T4, human FcγRIIIaV extracellular domain, C-terminal His-tag (human, UniProt P08637 17-208)
# T4 construct: also called FcgRIIIaV; not shown: His-tag added to the C-terminus
# Test: as above
# Experimental: as §1, §2
# T4 sequence (P08637 17-208 F176V): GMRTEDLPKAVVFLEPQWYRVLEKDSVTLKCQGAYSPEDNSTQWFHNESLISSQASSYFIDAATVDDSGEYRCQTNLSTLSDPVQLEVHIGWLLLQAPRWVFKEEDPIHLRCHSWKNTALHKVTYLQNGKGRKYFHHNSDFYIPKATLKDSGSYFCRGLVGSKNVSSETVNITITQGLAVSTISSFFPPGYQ
row,Kd,Binder
1,170 µM,B1
2,130 µM,B2
3,85 µM,B3
4,130 µM,B4
5,82 µM,B5
6,450 µM,B6
7,72 µM,B7
8,84 µM,B8
9,140 µM,B9
10,200 µM,B10
11,130 µM,B11
12,260 µM,B12
13,89 µM,B13
14,140 µM,B14
15,150 µM,B15

# Target: T1, human FcγRIIb extracellular domain, …
# Test: SPR; KD of SG1 divided by KD of variant;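 note: relative to parent M103205H795-SG1 carrying the SG1 human heavy chain constant region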
# Experimental: as §1, §2
row,KD fold (SG1 = 1),Binder
1,11.2 fold,B1
2,11.8 fold,B2
3,4.5 fold,B3
4,23.2 fold,B4
5,6.8 fold,B5
6,10.5 fold,B6
7,9.8 fold,B7
8,4.1 fold,B8
9,5.8 fold,B9
10,5.3 fold,B10
11,7.1 fold,B11
12,4.8 fold,B12
13,7.2 fold,B13
14,18.1 fold,B14
15,30.5 fold,B15

# Target: T2, human FcγRIIaH extracellular domain, …
# Test: SPR; KD of SG1 divided by KD of variant;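 note: relative to parent M103205H795-SG1 carrying the SG1 human heavy chain constant region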
# Experimental: as §1, §2
row,KD fold (SG1 = 1),Binder
1,0.031 fold,B1
2,0.038 fold,B2
3,0.013 fold,B3
4,0.026 fold,B4
5,0.016 fold,B5
6,0.007 fold,B6
7,0.013 fold,B7
8,0.008 fold,B8
9,0.034 fold,B9
10,0.011 fold,B10
11,0.014 fold,B11
12,0.015 fold,B12
13,0.02 fold,B13
14,0.017 fold,B14
15,0.042 fold,B15

# Target: T3, human FcγRIIaR extracellular domain, …
# Test: SPR; KD of SG1 divided by KD of variant;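 note: relative to parent M103205H795-SG1 carrying the SG1 human heavy chain constant region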
# Experimental: as §1, §2
row,KD fold (SG1 = 1),Binder
1,0.11 fold,B1
2,0.22 fold,B2
3,0.06 fold,B3
4,0.18 fold,B4
5,0.14 fold,B5
6,0.02 fold,B6
7,0.05 fold,B7
8,0.04 fold,B8
9,0.08 fold,B9
10,0.05 fold,B10
11,0.08 fold,B11
12,0.08 fold,B12
13,0.15 fold,B13
14,0.11 fold,B14
15,0.14 fold,B15

# Target: T4, human FcγRIIIaV extracellular domain, …
# Test: SPR; KD of SG1 divided by KD of variant;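 note: relative to parent M103205H795-SG1 carrying the SG1 human heavy chain constant region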
# Experimental: as §1, §2
row,KD fold (SG1 = 1),Binder
1,0.005 fold,B1
2,0.006 fold,B2
3,0.01 fold,B3
4,0.006 fold,B4
5,0.01 fold,B5
6,0.002 fold,B6
7,0.011 fold,B7
8,0.01 fold,B8
9,0.006 fold,B9
10,0.004 fold,B10
11,0.006 fold,B11
12,0.003 fold,B12
13,0.009 fold,B13
14,0.006 fold,B14
15,0.005 fold,B15

# Reference: patent publication US20200317768A1 (published 2020)
